# Laboratory results taken from PMC4571291, “How Leiomodin and Tropomodulin use a common fold for different actin assembly functions” (Nature Communications, 2015).
# B1: TL2_(ABS2) (domain or fragment)
# chain: VIKPTQYKPVPDEEPNSTDVEETLERIKNNDPKLEEVNLNNIRNIPIPTLKAYAEALKENSYVKKFSLANTHADDSAAMAIAEMLKVNEHITNVNVESNFITGKGILAIMRALQHNTVLTELRFHNQRHIMGSQVEMEIVKLLKENTTLLRLGYHFELPGPRMSMTSILTRNMDKQRQKRLQEQKQQE
# notes: human tropomodulin 1 residues 164-229; The junction was made with a silent NruI site; cloned in vector pTYB1; also called Tmod1-Lmod2 ABS2 hybrid construct
# B2: TL1_(ABS2) (domain or fragment)
# chain: VIKPTQYKPVPDEEPNSTDVEETLERIKNNDPKLEEVNLNNIRNIPIPTLKAYAEALKENSYVKKFALANTRADDHVAFAIAIMLKANKTITSLNLDSNHITGKGILAIFRALLQNNTLTELRFHNQRHICGGKTEMEIAKLLKENTTLLKLGYHFELAGPRMTVTNLLSRNMDKQRQKRLQEQRQAQ
# notes: human tropomodulin 1 residues 164-229; human leiomodin 1 residues 365-486; The junction was made with a silent NruI site; cloned in vector pTYB1; also called Tmod1-Lmod1 ABS2 hybrid construct
# B3: Lmod2_(ABS2) (domain or fragment)
# chain: NGRNTESPAAIHPCGNPTVIEDALDKIKSNDPDTTEVNLNNIENITTQTLTRFAEALKDNTVVKTFSLANTHADDSAAMAIAEMLKVNEHITNVNVESNFITGKGILAIMRALQHNTVLTELRFHNQRHIMGSQVEMEIVKLLKENTTLLRLGYHFELPGPRMSMTSILTRNMDKQRQKRLQEQKQQE
# notes: the limits 180-367 are printed for the construct of the same name made for cell expression; Cloned in vector pTYB1; also called isolated ABS2 of Lmod2
# Target: actin (UniProt P68135 1-377)
# Experiment: ITC; Tmod or Lmod construct in the syringe titrated into LatB-actin in the cell (LatB:actin 1.2:1); 20 mM HEPES pH 7.5, 100 mM NaCl, 0.2 mM ATP, 1 mM DTT; temperature and concentrations listed in the figures
# Details: both partners purified
row,stoichiometry N,Binder
1,2,B1
2,2,B2
3,2,B3
